# Results: patent publication US10898561B2, “Peptides and combination of peptides for use in immunotherapy against pancreatic cancer and other cancers” (IMMATICS BIOTECHNOLOGIES GMBH, priority 2015, dated 2021)
# Target: HLA-A*02:01 (Homo sapiens, UniProt P04439, D140Y/D185E/D98H/E176V/E277Q/G131W/G231S/I119V/I121R/I166T/I218V/L300P/L318F/N151K/N90K/P208A/P217A/Q86G/Q94H/R138H/R169H/T345S)
# Assay: MHC binding assay: UV-ligand exchange with beta2m ELISA
# Conditions: MHC class I binding score, yield of UV-ligand exchange
# Description: Candidate peptides for T cell based therapies according to the present invention were further tested for their MHC binding capacity (affinity). The individual peptide-MHC complexes were produced by UV-ligand exchange, where a UV-sensitive peptide is cleaved upon UV-irradiation, and exchanged with the peptide of interest as analyzed. Only peptide candidates that can effectively bind and stabilize the peptide-receptive MHC molecules prevent dissociation of the MHC complexes. To determine the yield of the exchange reaction, an ELISA was performed based on the detection of the light chain (β2m) of stabilized MHC complexes. The assay was performed as generally described in Rodenko et al. (Rodenko et al., 2006).
# 96 well MAXISorp plates (NUNC) were coated over night with 2 ug/ml streptavidin in PBS at room temperature, washed 4× and blocked for 1 h at 37° C. in 2% BSA containing blocking buffer. Refolded HLA-A*02:01/MLA-001 monomers served as standards, covering the range of 15-500 ng/ml. Peptide-MHC monomers of the UV-exchange reaction were diluted 100 fold in blocking buffer. Samples were incubated for 1 h at 37° C., washed four times, incubated with 2 ug/ml HRP conjugated anti-β2m for 1 h at 37° C., washed again and detected with TMB solution that is stopped with […]. Absorption was measured at 450 nm. Candidate peptides that show a high exchange yield (preferably higher than 50%, most preferred higher than 75%) are generally preferred for a generation and production of antibodies or fragments thereof, and/or T cell receptors or fragments thereof, as they show sufficient avidity to the MHC molecules and prevent dissociation of the MHC complexes.
row,Substance,Peptide exchange
1,17 (FLKSGDAAIV; listed as Homo sapiens) [compound 17],++ (20%-49% = ++)
2,2 (SLQEEHVAVA; listed as Homo sapiens) [compound 2],++ (20%-49% = ++)
3,24 (GLLEELVTV; listed as Homo sapiens) [compound 24],++ (20%-49% = ++)
4,22 (TLDGAAVNQV; listed as Homo sapiens) [compound 22],++ (20%-49% = ++)
5,13 (LLAGQTYHV; listed as Homo sapiens) [compound 13],++ (20%-49% = ++)
6,5 (LLVDDSFLHTV; listed as Homo sapiens) [compound 5],+++ (50%-75% = +++)
7,11 (FLYKIIDEL; listed as Homo sapiens) [compound 11],+++ (50%-75% = +++)
8,31 (SLAAAAGKQEL; listed as Homo sapiens) [compound 31],++ (20%-49% = ++)
9,15 (SLANNVTSV; listed as Homo sapiens) [compound 15],++ (20%-49% = ++)
10,9 (FLFDGSANLV; listed as Homo sapiens) [compound 9],++ (20%-49% = ++)
11,7 (AQQESEIAGI; listed as Homo sapiens) [compound 7],++ (20%-49% = ++)
12,28 (YLQGQRLDNVV; listed as Homo sapiens) [compound 28],++ (20%-49% = ++)
13,30 (VVDEGPTGV; listed as Homo sapiens) [compound 30],++ (20%-49% = ++)
14,16 (APVNVTTEVKSV; listed as Homo sapiens) [compound 16],++ (20%-49% = ++)
15,1 (FLAQQESEI; listed as Homo sapiens) [compound 1],++ (20%-49% = ++)
16,18 (SLLDDELMSL; listed as Homo sapiens) [compound 18],++ (20%-49% = ++)
17,8 (IVDDLTINL; listed as Homo sapiens) [compound 8],++ (20%-49% = ++)
18,10 (FLVDGSSAL; listed as Homo sapiens) [compound 10],++ (20%-49% = ++)
19,4 (SVDVSPPKV; listed as Homo sapiens) [compound 4],++ (20%-49% = ++)
20,25 (SLKEEVGEEAI; listed as Homo sapiens) [compound 25],++ (20%-49% = ++)
21,14 (VLAKPGVISV; listed as Homo sapiens) [compound 14],++ (20%-49% = ++)
22,29 (FLQEYLDAI; listed as Homo sapiens) [compound 29],+++ (50%-75% = +++)
23,33 (SLDSRLELA; listed as Homo sapiens) [compound 33],++ (20%-49% = ++)
24,32 (SLAAAAGKQELA; listed as Homo sapiens) [compound 32],+ (<20% = +)
25,27 (YLQGQRLDNV; listed as Homo sapiens) [compound 27],++ (20%-49% = ++)
26,26 (SLKEEVGEEAIV; listed as Homo sapiens) [compound 26],++ (20%-49% = ++)
27,6 (VLISLKQAPLV; listed as Homo sapiens) [compound 6],++ (20%-49% = ++)
28,12 (FVSEIVDTV; listed as Homo sapiens) [compound 12],+++ (50%-75% = +++)

# Further lines, results first:
row,Peptide exchange,Substance
1,++ (20%-49% = ++),55 (YLDAMMNEA; listed as Homo sapiens) [compound 55]
2,+++ (50%-75% = +++),58 (GLAAFKAFL; listed as Homo sapiens) [compound 58]
3,+ (<20% = +),49 (NLKGTFATL; listed as Homo sapiens) [compound 49]
4,+++ (50%-75% = +++),67 (KMFFLIDKV; listed as Homo sapiens) [compound 67]
5,++ (20%-49% = ++),51 (ALMLQGVDL; listed as Homo sapiens) [compound 51]
6,+++ (50%-75% = +++),64 (FLVSNMLLAEA; listed as Homo sapiens) [compound 64]
7,++ (20%-49% = ++),40 (FILDSAETTTL; listed as Homo sapiens) [compound 40]
8,++ (20%-49% = ++),65 (YLYDSETKNA; listed as Homo sapiens) [compound 65]
9,++ (20%-49% = ++),44 (VLLDKIKNLQV; listed as Homo sapiens) [compound 44]
10,++ (20%-49% = ++),52 (RMVEEIGVEL; listed as Homo sapiens) [compound 52]
11,+++ (50%-75% = +++),56 (GLLDYATGAIGSV; listed as Homo sapiens) [compound 56]
12,++ (20%-49% = ++),60 (YLEEDVYQL; listed as Homo sapiens) [compound 60]
13,+++ (50%-75% = +++),66 (ALLSGLREA; listed as Homo sapiens) [compound 66]
14,++ (20%-49% = ++),42 (KLVDKSTEL; listed as Homo sapiens) [compound 42]
15,++++ (>=75% = ++++),57 (FLGKVVIDV; listed as Homo sapiens) [compound 57]
16,++ (20%-49% = ++),46 (TFAPVNVTTEVKSV; listed as Homo sapiens) [compound 46]
17,++ (20%-49% = ++),59 (KLFNLSKEDDV; listed as Homo sapiens) [compound 59]
18,++ (20%-49% = ++),35 (VMDSGDGVTHTV; listed as Homo sapiens) [compound 35]
19,++++ (>=75% = ++++),47 (KMDASLGNLFA; listed as Homo sapiens) [compound 47]
20,++ (20%-49% = ++),48 (ALTQTGGPHV; listed as Homo sapiens) [compound 48]
21,++ (20%-49% = ++),43 (RLDQRVPQI; listed as Homo sapiens) [compound 43]
22,++ (20%-49% = ++),39 (TLLSNLEEA; listed as Homo sapiens) [compound 39]
23,++ (20%-49% = ++),54 (VLLSEIEVA; listed as Homo sapiens) [compound 54]
24,+ (<20% = +),53 (SSFGGLGGGSV; listed as Homo sapiens) [compound 53]
25,+++ (50%-75% = +++),41 (FLLDGSEGV; listed as Homo sapiens) [compound 41]
26,+++ (50%-75% = +++),38 (NLVEKTPALV; listed as Homo sapiens) [compound 38]
